The results in this text go back to US9060970B2, “Bridge-helix cap: target and method for inhibition of bacterial RNA polymerase” (priority 2011, dated 2015).

≈ marks a conversion by molar mass, not a printed value. Entries after “also recorded” stand apart in the source; their conditions may differ. Marks after values point to notes of the source that are not given here.

For assay [1], the system named is E. coli D21f2tolC. Briefly: Spontaneous resistance frequency by plating on LB agar containing inhibitor. Type of assay: cell-based, Escherichia coli. Conditions: LB agar, each compound at 4×MIC, colonies counted after 24 h at 37° C. From the text: Sal-Resistant Mutants Map to RNAP-Subunit Genes. To determine whether Sal kills bacteria by inhibiting RNAP, spontaneous Sal-resistant mutants were isolated, and genes for RNAP subunits in Sal-resistant mutants were PCR-amplified and sequenced (FIG. 3A). Spontaneous Sal-resistant mutants were isolated by plating high-density cultures of E. coli D21f2tolC (˜3×10^9 cells per plate) on agar containing Sal and identifying rare resistant colonies (FIG. 3B). For each Sal-resistant mutant, genomic DNA was prepared, and the genes for the largest RNAP subunit and the second-largest RNAP subunit—rpoC encoding RNAP β′ subunit and rpoB encoding RNAP β subunit were PCR-amplified and sequenced (FIG. 3C).
Co-Administration of Sal and Rifampin Reduces Spontaneous Resistance to Undetectable Levels.
Co-Administration of Sal and CBR703 Reduces Spontaneous Resistance to Undetectable Levels.
(§1) Isolation of Sal-Resistant Mutants: Spontaneous Sal-Resistant Mutants. E. coli D21f2tolC (6) was cultured to saturation in 5 ml LB broth (7) at 37° C., cultures were centrifuged, and cell pellets (˜3×10^9 cells) were re-suspended in 50 μl LB broth and plated on LB agar (7) containing 1.2 μg/ml Sal (a concentration four times the minimal concentration required to prevent growth of wild-type cells under these conditions), and incubated 24-48 h at 37° C. Sal-resistant mutants were identified by the ability to form colonies on this medium and were confirmed by re-streaking on the same medium.

In assay [2] the test system is E. coli D21f2tolC. In words: Broth microdilution MIC, wild-type rpoC and rpoB. Type of assay: cell-based, Escherichia coli. The conditions noted are these: LB broth, 16 h at 37° C., lowest concentration inhibiting growth by 95%. The procedure:
(§2) Quantitation of Resistance to Sal. Resistance to Sal was quantified by performing broth microdilution assays. Single colonies were inoculated into 3 ml LB broth, and incubated 3-6 h at 37° C. with shaking. Diluted aliquots (2×10^4 cells in 98 μl LB broth; concentrations determined using OD600=1 for 10^9 cells) were dispensed into wells of a 96-well plate, were supplemented with 2 μl of a 2-fold dilution series of Sal in methanol (final concentrations of […], 0.390, 0.195, 0.0975, 0.0488, 0.0244, 0.0122, and 0.00609 μg/ml) or 2 μl of a solvent blank, and were incubated 16 h at 37° C. with shaking. The minimum inhibitory concentration (MIC) was defined as the lowest tested concentration of Sal that inhibited bacterial growth by 95%.
(§3) Quantitation of Cross-Resistance to Rifampin and CBR703. Cross-resistance levels were determined analogously to resistance levels, using 0.12-0.78 μg/ml of rifampin (Sigma, Inc.) and 0.39-25 μg/ml of CBR703 (Maybridge, Inc.).
In general terms: Broth dilution looks for growth in wells or tubes with falling amounts of substance.

Assay [3] has as its system Sal-resistant mutants of E. coli D21f2tolC (rpoC / rpoB substitutions). Briefly: Broth microdilution resistance / cross-resistance levels of spontaneous Sal-resistant mutants. Type of assay: cell-based, Escherichia coli. Conditions: for cross-resistance level (MIC/MICwild-type): values <1 = hypersensitivity; for cross-resistance of Sal-resistant mutants (in words): broth microdilution (Table 4). On the procedure: as §1, §2, §3

For assay [4], the target named is E. coli RNAP, β subunit 677 Asn→Lys (Escherichia coli) (UniProt P0A8T7). In words: cell-based or functional assay.
Assay [5] has as its target E. coli RNAP, β′ subunit 783 Leu→Arg (Escherichia coli) (UniProt P0A8T7). Briefly: cell-based or functional assay.
Assay [6] deals with E. coli RNAP, β subunit 665 Ala→Glu (Escherichia coli) (UniProt P0A8T7). Briefly: cell-based or functional assay.
For assay [7], the target named is E. coli RNAP, β′ subunit 780 Arg→Cys (Escherichia coli) (UniProt P0A8T7). In words: cell-based or functional assay.
Assay [8] deals with E. coli RNAP, β′ subunit 690 Asn→Asp (Escherichia coli) (UniProt P0A8T7). In words: cell-based or functional assay.
For assay [9], the target named is E. coli RNAP, β subunit 526 His→Asp (Escherichia coli) (UniProt P0A8T7). In words: cell-based or functional assay.
For assay [10], the target named is E. coli RNAP, β′ subunit 775 Ser→Ala (Escherichia coli) (UniProt P0A8T7). Briefly: cell-based or functional assay.
Assay [11] has as its target E. coli RNAP, β′ subunit 738 Arg→Ser (Escherichia coli) (UniProt P0A8T7). In words: cell-based or functional assay.
Assay [12] addresses E. coli RNAP, β′ subunit 738 Arg→Pro (Escherichia coli) (UniProt P0A8T7). In words: cell-based or functional assay.
In assay [13] the target is E. coli RNAP, β′ subunit 697 Met→Val (Escherichia coli) (UniProt P0A8T7). In words: cell-based or functional assay.
The target of assay [14] is E. coli RNAP, β subunit 569 Ile→Ser (Escherichia coli) (UniProt P0A8T7). In words: cell-based or functional assay.
Assay [15] concerns the target E. coli RNAP, β subunit 680 Leu→Met (Escherichia coli) (UniProt P0A8T7). In words: cell-based or functional assay.
Assay [16] concerns the target E. coli RNAP, β subunit 677 Asn→His (Escherichia coli) (UniProt P0A8T7). Briefly: cell-based or functional assay.
The target in assay [17] is E. coli RNAP, β′ subunit 782 Gly→Cys (Escherichia coli) (UniProt P0A8T7). In words: cell-based or functional assay.
For assay [18], the target named is E. coli RNAP, β subunit 561 Ile→Ser (Escherichia coli) (UniProt P0A8T7). In words: cell-based or functional assay.
Assay [19] concerns the target E. coli RNAP, β subunit 516 Asp→Val (Escherichia coli) (UniProt P0A8T7). Briefly: cell-based or functional assay.
The target in assay [20] is E. coli RNAP, β′ subunit 738 Arg→His (Escherichia coli) (UniProt P0A8T7). In words: cell-based or functional assay.
Assay [21] addresses E. coli RNAP, β′ subunit 738 Arg→Cys (Escherichia coli) (UniProt P0A8T7). In words: cell-based or functional assay.
The target in assay [22] is E. coli RNAP, β′ subunit 763 Phe→Cys (Escherichia coli) (UniProt P0A8T7). Briefly: cell-based or functional assay.
The target in assay [23] is E. coli RNAP, β′ subunit 758 Pro→Thr (Escherichia coli) (UniProt P0A8T7). In words: cell-based or functional assay.
Assay [24] deals with E. coli RNAP, β subunit 526 His→Tyr (Escherichia coli) (UniProt P0A8T7). Briefly: cell-based or functional assay.
Assay [25] has as its target E. coli RNAP, β′ subunit 779 Ala→Val (Escherichia coli) (UniProt P0A8T7). In words: cell-based or functional assay.
Assay [26] concerns the target E. coli RNAP, β subunit 531 Ser→Leu (Escherichia coli) (UniProt P0A8T7). Briefly: cell-based or functional assay.
In assay [27] the target is E. coli RNAP, β subunit 675 Asp→Ala (Escherichia coli) (UniProt P0A8T7). Briefly: cell-based or functional assay.
Assay [28] concerns the target E. coli RNAP, β′ subunit 758 Pro→Ser (Escherichia coli) (UniProt P0A8T7). In words: cell-based or functional assay.
In assay [29] the target is E. coli RNAP, β′ subunit 748 Ala→Glu (Escherichia coli) (UniProt P0A8T7). Briefly: cell-based or functional assay.
Assay [30] has as its target Escherichia coli RNA polymerase with wild-type rpoC and wild-type rpoB, in E. coli D21f2tolC (Escherichia coli) (UniProt P0A8T7). Briefly: cell-based or functional assay.
The target in assay [31] is E. coli RNAP, β′ subunit 779 Ala→Thr (Escherichia coli) (UniProt P0A8T7). Briefly: cell-based or functional assay.

As to `ONC(=Nc1ccccc1)c1cccc(C(F)(F)F)c1` [CBR703], the spontaneous resistance frequency in the assay with E. coli D21f2tolC [1] is listed as 2×10^−10. The “MIC with wild-type rpoC and wild-type rpoB” value in the assay on E. coli D21f2tolC [2] was determined as 6.25 µg/mL. For the same compound, the “cross-resistance level (MIC/MICwild-type)” value in [3] (Sal-resistant mutant rpoB (RNAP β subunit) 569 Ile→Ser) is given as 1; in assay [3] (Sal-resistant mutant rpoB (RNAP β subunit) 675 Asp→Ala), “≦0.25”; in assay [3] (Sal-resistant mutant rpoB (RNAP β subunit) 677 Asn→His), 1; in assay [3] (Sal-resistant mutant rpoB (RNAP β subunit) 677 Asn→Lys), “≦0.25”; in assay [3] (Sal-resistant mutant rpoC (RNAP β′ subunit) 690 Asn→Asp) it was “≦0.25^b”; in [3] (Sal-resistant mutant rpoC (RNAP β′ subunit) 697 Met→Val) it was 0.5. Moreover, the “cross-resistance level (MIC/MICwild-type)” value in assay [3] (Sal-resistant mutant rpoC (RNAP β′ subunit) 738 Arg→Cys) was “≦0.25”; in assay [3] (Sal-resistant mutant rpoC (RNAP β′ subunit) 738 Arg→Pro), “≦0.25”; in assay [3] (Sal-resistant mutant rpoC (RNAP β′ subunit) 738 Arg→Ser), 1; in assay [3] (Sal-resistant mutant rpoC (RNAP β′ subunit) 748 Ala→Glu), “≦0.25”; in [3] (Sal-resistant mutant rpoC (RNAP β′ subunit) 763 Phe→Cys) it was “≦0.25”; in [3] (Sal-resistant mutant rpoC (RNAP β′ subunit) 779 Ala→Thr) it was 1. In addition, the “cross-resistance level (MIC/MICwild-type)” value in assay [3] (Sal-resistant mutant rpoC (RNAP β′ subunit) 779 Ala→Val) was “≦0.25”; in assay [3] (Sal-resistant mutant rpoC (RNAP β′ subunit) 780 Arg→Cys) it was 0.5. Moreover, in assay [3], the “cross-resistance of Sal-resistant mutants (in words)” value is recorded as “no cross-resistance”.

Regarding `CO[C@H]1/C=C/O[C@@]2(C)Oc3c(C)c(O)c4c(O)c(c(/C=N/N5CCN(C)CC5)c(O)c4c3C2=O)NC(=O)/C(C)=C\C=C\[C@H](C)[C@H](O)[C@@H](C)[C@@H](O)[C@@H](C)[C@H](OC(C)=O)[C@@H]1C` [rifampin], the figures for the spontaneous resistance frequency in the assay on E. coli D21f2tolC [1] and in the assay on E. coli D21f2tolC [1] (listed as Rif) were 1×10^−8 and 1 × 10^−8, respectively. This compound displayed an MIC against E. coli D21f2tolC [2] (Escherichia coli, D21F2TOLC) of 0.098 µg/mL (≈ 0.119 µM). Further, the “cross-resistance of Sal-resistant mutants (in words)” value in assay [3] is recorded as “not cross-resistant; also recorded: no cross-resistance”. In assay [3] ({}), the “hypersensitivity of Sal-resistant mutants” value is on record as 2 fold.

As to salinamide A (peptide), the resistance level (MIC/MICwild-type) (MIC/MICwild-type) in assay [4] was over 16; in [5], over 16; in assay [7], over 16; in assay [8], 16; in assay [10] it was 8; in [11], over 16. Besides, the resistance level (MIC/MICwild-type) (MIC/MICwild-type) in assay [12], in [13], in assay [14], in assay [16], in assay [20] and in assay [21] was over 16 throughout. Also, the resistance level (MIC/MICwild-type) (MIC/MICwild-type) was 16 in assay [22]; over 16 in assay [25]; over 16 in [27]; 16 in assay [28]; 16 in [29]; over 16 in assay [31]. For the same compound, the resistance level (MIC/MICwild-type), plasmid-borne rpoB (MIC/MICwild-type) in assay [6] worked out at 8; in [15] it was 4; in assay [18], 2. Moreover, the values for the resistance level (MIC/MICwild-type), plasmid-borne rpoC (MIC/MICwild-type) in assay [7], in assay [17] and in [23] were 8, 8 and 4, respectively. Besides, the cross-resistance level (MIC/MICwild-type) to Sal (MIC/MICwild-type) in [9], in assay [19], in assay [24] and in assay [26] was 1 each time. Moreover, the MIC (broth microdilution, D21f2tolC pRL663 and D21f2tolC pRL706 derivatives) in assay [30] amounted to 0.098 µg/ml. In assay [30], this compound displayed an MIC (broth microdilution, E. coli D21f2tolC) of 0.024 µg/mL.

By MIC is commonly meant the lowest concentration found to suppress growth. A high value points to a need for much substance.
